Laboratory results taken from patent publication US20260015399A1 (Boehringer Ingelheim, published 2026).
*1 amine or outer side, *2 acyl side, *3 side chain or, on linkers, in order; H or OH if unused. Side-chain parts run from the residue outwards. The star is where a group is joined. C18 diacid = O=C(O)CCCCCCCCCCCCCCCCC(=O)*; γGlu = O=C(O)[C@H](CCC(=O)[*:2])N[*:1]; Isovaleryl = CC(C)CC(=O)*; Ahx = NCCCCCC(=O)O

T1: human NPY2 receptor (human, UniProt P49146 1-381)
T1 construct: whole, on cells; also called hNPY2-R; hNPY2R
T1 sequence (looked up): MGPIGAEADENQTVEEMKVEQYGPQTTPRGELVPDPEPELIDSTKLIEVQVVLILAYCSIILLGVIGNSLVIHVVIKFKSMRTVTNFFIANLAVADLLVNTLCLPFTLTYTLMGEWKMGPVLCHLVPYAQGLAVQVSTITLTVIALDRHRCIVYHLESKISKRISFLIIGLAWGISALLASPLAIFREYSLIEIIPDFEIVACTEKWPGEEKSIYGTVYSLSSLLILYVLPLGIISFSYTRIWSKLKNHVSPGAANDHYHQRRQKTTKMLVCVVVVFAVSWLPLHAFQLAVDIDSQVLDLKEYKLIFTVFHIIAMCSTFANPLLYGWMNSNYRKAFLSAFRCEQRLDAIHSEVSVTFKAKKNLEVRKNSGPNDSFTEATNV

T2: human NPY5 receptor (human, UniProt Q15761 1-445)
T2 sequence (looked up): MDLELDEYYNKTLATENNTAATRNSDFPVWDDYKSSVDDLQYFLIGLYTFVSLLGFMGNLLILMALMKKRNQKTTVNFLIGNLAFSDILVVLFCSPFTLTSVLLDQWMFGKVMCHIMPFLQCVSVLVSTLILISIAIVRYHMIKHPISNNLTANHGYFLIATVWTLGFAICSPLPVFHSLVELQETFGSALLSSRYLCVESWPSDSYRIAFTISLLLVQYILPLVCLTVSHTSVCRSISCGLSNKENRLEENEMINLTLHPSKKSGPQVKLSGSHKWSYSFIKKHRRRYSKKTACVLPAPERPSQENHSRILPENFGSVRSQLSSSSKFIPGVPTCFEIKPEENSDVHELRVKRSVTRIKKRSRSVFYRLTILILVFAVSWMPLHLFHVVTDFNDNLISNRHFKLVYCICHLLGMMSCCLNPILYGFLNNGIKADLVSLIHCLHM

T3: human NPY1 receptor (human, UniProt P25929 1-384)
T3 sequence (looked up): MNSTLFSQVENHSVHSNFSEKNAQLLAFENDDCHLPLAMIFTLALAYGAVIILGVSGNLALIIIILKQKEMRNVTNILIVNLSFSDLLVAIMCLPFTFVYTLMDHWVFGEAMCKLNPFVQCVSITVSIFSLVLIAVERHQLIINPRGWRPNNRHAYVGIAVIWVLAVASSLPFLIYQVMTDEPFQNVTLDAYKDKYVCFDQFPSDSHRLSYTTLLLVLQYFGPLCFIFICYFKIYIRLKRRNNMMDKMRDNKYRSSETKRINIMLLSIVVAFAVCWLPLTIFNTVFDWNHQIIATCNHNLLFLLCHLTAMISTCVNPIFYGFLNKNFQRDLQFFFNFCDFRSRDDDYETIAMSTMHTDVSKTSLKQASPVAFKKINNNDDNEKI


How the values were obtained:
[1] = target: T1, human NPY2 receptor; assay: RLB: displacement of 125I-PYY(1-36) from hNPY2R membranes
[2] = target: human NPY4 receptor (human, UniProt P50391 1-375); assay: cell-based or functional assay
[3] = target: T2, human NPY5 receptor; assay: cell-based or functional assay
[4] = target: T3, human NPY1 receptor; assay: cell-based or functional assay
[5] = target: T1, human NPY2 receptor; assay: cell-based or functional assay

human NPY4 receptor, sequence (P50391 whole entry): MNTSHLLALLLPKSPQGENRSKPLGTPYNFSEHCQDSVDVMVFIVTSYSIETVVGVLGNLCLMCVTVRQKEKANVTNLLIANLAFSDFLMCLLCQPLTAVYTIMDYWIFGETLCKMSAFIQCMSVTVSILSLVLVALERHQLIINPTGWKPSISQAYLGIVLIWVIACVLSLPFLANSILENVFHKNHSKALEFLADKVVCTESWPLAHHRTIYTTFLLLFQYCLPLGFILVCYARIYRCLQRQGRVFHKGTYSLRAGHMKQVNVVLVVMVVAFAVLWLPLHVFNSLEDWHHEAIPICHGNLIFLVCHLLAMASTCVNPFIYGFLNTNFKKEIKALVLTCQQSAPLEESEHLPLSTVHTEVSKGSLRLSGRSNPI

Row | Binder | Ki [1] [nM] | EC50, HTRF cAMP Gi assay [2] [nM] | EC50, HTRF cAMP Gi assay [3] [nM] | EC50, HTRF cAMP Gi assay [4] [nM] | EC50, HTRF cAMP Gi assay [5] [nM]
1 | Isovaleryl-APEK([Ahx-γGlu-C18 diacid])PEEAASPEEIQRYYVSLRHYYNWLTRQRY-NH2 (SMILES CC[C@H](C)[C@H](NC(=O)[C@H](CCC(=O)O)NC(=O)[C@H](CCC(=O)O)NC(=O)[C@@H]1CCCN1C(=O)[C@H](CO)NC(=O)[C@H](C)NC(=O)[C@H](C)NC(=O)[C@H](CCC(=O)O)NC(=O)[C@H](CCC(=O)O)NC(=O)[C@@H]1CCCN1C(=O)[C@H](CCCCNC(=O)CCCCCNC(=O)CC[C@H](NC(=O)CCCCCCCCCCCCCCCCC(=O)O)C(=O)O)NC(=O)[C@H](CCC(=O)O)NC(=O)[C@@H]1CCCN1C(=O)[C@H](C)NC(=O)CC(C)C)C(=O)N[C@@H](CCC(N)=O)C(=O)N[C@@H](CCCNC(=N)N)C(=O)N[C@@H](Cc1ccc(O)cc1)C(=O)N[C@@H](Cc1ccc(O)cc1)C(=O)N[C@H](C(=O)N[C@@H](CO)C(=O)N[C@@H](CC(C)C)C(=O)N[C@@H](CCCNC(=N)N)C(=O)N[C@@H](Cc1c[nH]cn1)C(=O)N[C@@H](Cc1ccc(O)cc1)C(=O)N[C@@H](Cc1ccc(O)cc1)C(=O)N[C@@H](CC(N)=O)C(=O)N[C@@H](Cc1c[nH]c2ccccc12)C(=O)N[C@@H](CC(C)C)C(=O)N[C@H](C(=O)N[C@@H](CCCNC(=N)N)C(=O)N[C@@H](CCC(N)=O)C(=O)N[C@@H](CCCNC(=N)N)C(=O)N[C@@H](Cc1ccc(O)cc1)C(N)=O)[C@@H](C)O)C(C)C) [Compound 150] | 2.18 | > 5000 | > 5000 | > 5000 | 0.243
2 | Isovaleryl-APEK([Ahx-γGlu-C18 diacid])PEADATPEEIQRYYVALRHYYNWLTRQRY-NH2 (SMILES CC[C@H](C)[C@H](NC(=O)[C@H](CCC(=O)O)NC(=O)[C@H](CCC(=O)O)NC(=O)[C@@H]1CCCN1C(=O)[C@@H](NC(=O)[C@H](C)NC(=O)[C@H](CC(=O)O)NC(=O)[C@H](C)NC(=O)[C@H](CCC(=O)O)NC(=O)[C@@H]1CCCN1C(=O)[C@H](CCCCNC(=O)CCCCCNC(=O)CC[C@H](NC(=O)CCCCCCCCCCCCCCCCC(=O)O)C(=O)O)NC(=O)[C@H](CCC(=O)O)NC(=O)[C@@H]1CCCN1C(=O)[C@H](C)NC(=O)CC(C)C)[C@@H](C)O)C(=O)N[C@@H](CCC(N)=O)C(=O)N[C@@H](CCCNC(=N)N)C(=O)N[C@@H](Cc1ccc(O)cc1)C(=O)N[C@@H](Cc1ccc(O)cc1)C(=O)N[C@H](C(=O)N[C@@H](C)C(=O)N[C@@H](CC(C)C)C(=O)N[C@@H](CCCNC(=N)N)C(=O)N[C@@H](Cc1c[nH]cn1)C(=O)N[C@@H](Cc1ccc(O)cc1)C(=O)N[C@@H](Cc1ccc(O)cc1)C(=O)N[C@@H](CC(N)=O)C(=O)N[C@@H](Cc1c[nH]c2ccccc12)C(=O)N[C@@H](CC(C)C)C(=O)N[C@H](C(=O)N[C@@H](CCCNC(=N)N)C(=O)N[C@@H](CCC(N)=O)C(=O)N[C@@H](CCCNC(=N)N)C(=O)N[C@@H](Cc1ccc(O)cc1)C(N)=O)[C@@H](C)O)C(C)C) [Compound 184] | 0.64 | > 5000 | > 5000 | > 5000 | 0.232

Continued, values first:

Row | Ki [1] [nM] | EC50, HTRF cAMP Gi assay [2] [nM] | EC50, HTRF cAMP Gi assay [3] [nM] | EC50, HTRF cAMP Gi assay [4] [nM] | EC50, HTRF cAMP Gi assay [5] [nM] | Binder
3 | 0.78 | > 5000 | > 5000 | > 5000 | 0.197 | Isovaleryl-APAK([Ahx-γGlu-C18 diacid])PEEDASPEEIQRYYISLRHYYNWLTRQRY-NH2 (SMILES CC[C@H](C)[C@H](NC(=O)[C@H](Cc1ccc(O)cc1)NC(=O)[C@H](Cc1ccc(O)cc1)NC(=O)[C@H](CCCNC(=N)N)NC(=O)[C@H](CCC(N)=O)NC(=O)[C@@H](NC(=O)[C@H](CCC(=O)O)NC(=O)[C@H](CCC(=O)O)NC(=O)[C@@H]1CCCN1C(=O)[C@H](CO)NC(=O)[C@H](C)NC(=O)[C@H](CC(=O)O)NC(=O)[C@H](CCC(=O)O)NC(=O)[C@H](CCC(=O)O)NC(=O)[C@@H]1CCCN1C(=O)[C@H](CCCCNC(=O)CCCCCNC(=O)CC[C@H](NC(=O)CCCCCCCCCCCCCCCCC(=O)O)C(=O)O)NC(=O)[C@H](C)NC(=O)[C@@H]1CCCN1C(=O)[C@H](C)NC(=O)CC(C)C)[C@@H](C)CC)C(=O)N[C@@H](CO)C(=O)N[C@@H](CC(C)C)C(=O)N[C@@H](CCCNC(=N)N)C(=O)N[C@@H](Cc1c[nH]cn1)C(=O)N[C@@H](Cc1ccc(O)cc1)C(=O)N[C@@H](Cc1ccc(O)cc1)C(=O)N[C@@H](CC(N)=O)C(=O)N[C@@H](Cc1c[nH]c2ccccc12)C(=O)N[C@@H](CC(C)C)C(=O)N[C@H](C(=O)N[C@@H](CCCNC(=N)N)C(=O)N[C@@H](CCC(N)=O)C(=O)N[C@@H](CCCNC(=N)N)C(=O)N[C@@H](Cc1ccc(O)cc1)C(N)=O)[C@@H](C)O) [Compound 195]
4 | 3.42 | > 5000 | > 5000 | > 5000 | 0.331 | Isovaleryl-APEK([Ahx-γGlu-C18 diacid])PEEEASPEEIQRYYVSLRHYYNWLTRQRY-NH2 (SMILES CC[C@H](C)[C@H](NC(=O)[C@H](CCC(=O)O)NC(=O)[C@H](CCC(=O)O)NC(=O)[C@@H]1CCCN1C(=O)[C@H](CO)NC(=O)[C@H](C)NC(=O)[C@H](CCC(=O)O)NC(=O)[C@H](CCC(=O)O)NC(=O)[C@H](CCC(=O)O)NC(=O)[C@@H]1CCCN1C(=O)[C@H](CCCCNC(=O)CCCCCNC(=O)CC[C@H](NC(=O)CCCCCCCCCCCCCCCCC(=O)O)C(=O)O)NC(=O)[C@H](CCC(=O)O)NC(=O)[C@@H]1CCCN1C(=O)[C@H](C)NC(=O)CC(C)C)C(=O)N[C@@H](CCC(N)=O)C(=O)N[C@@H](CCCNC(=N)N)C(=O)N[C@@H](Cc1ccc(O)cc1)C(=O)N[C@@H](Cc1ccc(O)cc1)C(=O)N[C@H](C(=O)N[C@@H](CO)C(=O)N[C@@H](CC(C)C)C(=O)N[C@@H](CCCNC(=N)N)C(=O)N[C@@H](Cc1c[nH]cn1)C(=O)N[C@@H](Cc1ccc(O)cc1)C(=O)N[C@@H](Cc1ccc(O)cc1)C(=O)N[C@@H](CC(N)=O)C(=O)N[C@@H](Cc1c[nH]c2ccccc12)C(=O)N[C@@H](CC(C)C)C(=O)N[C@H](C(=O)N[C@@H](CCCNC(=N)N)C(=O)N[C@@H](CCC(N)=O)C(=O)N[C@@H](CCCNC(=N)N)C(=O)N[C@@H](Cc1ccc(O)cc1)C(N)=O)[C@@H](C)O)C(C)C) [Compound 193]
